Experiments:
HLA-B*27:05 = test: IEDB peptide-MHC binding, purified MHC/direct/fluorescence; filed as Kd, often an IC50 or EC50 that approximates it; ≥ and ≤ were set here for values at or beyond the usual limits of such assays; settings: source organism: Mammarenavirus juninense
HLA-A*23:01 = test: IEDB peptide-MHC binding, purified MHC/competitive/radioactivity; filed as Kd, often an IC50 or EC50 that approximates it; ≥ and ≤ were set here for values at or beyond the usual limits of such assays
HLA-A*24:02 = test: as above
HLA-A*29:02 = test: as above
HLA-A*02:01 [1] = test: IEDB peptide-MHC binding, purified MHC/direct/fluorescence; filed as Kd, often an IC50 or EC50 that approximates it; ≥ and ≤ were set here for values at or beyond the usual limits of such assays
HLA-A*69:01 = test: as above
HLA-B*58:01 = test: as above; settings: source organism: Salmonella enterica subsp. enterica serovar Typhimurium
HLA-B*44:02 = test: IEDB peptide-MHC binding, purified MHC/competitive/radioactivity; filed as Kd, often an IC50 or EC50 that approximates it; ≥ and ≤ were set here for values at or beyond the usual limits of such assays
HLA-B*44:03 = test: as above
HLA-A*01:01 = test: as above
HLA-A*26:01 = test: as above
HLA-A*30:02 = test: as above
HLA-A*32:01 = test: as above
HLA-B*07:02 [2] = test: IEDB peptide-MHC binding, purified MHC/direct/fluorescence; filed as Kd, often an IC50 or EC50 that approximates it; ≥ and ≤ were set here for values at or beyond the usual limits of such assays; settings: source organism: Mycobacterium avium 104
HLA-B*51:01 [3] = test: IEDB peptide-MHC binding, purified MHC/competitive/fluorescence; filed as Kd, often an IC50 or EC50 that approximates it; ≥ and ≤ were set here for values at or beyond the usual limits of such assays
HLA-B*07:02 [4] = test: IEDB peptide-MHC binding, purified MHC/competitive/radioactivity; filed as Kd, often an IC50 or EC50 that approximates it; ≥ and ≤ were set here for values at or beyond the usual limits of such assays
HLA-B*15:01 [5] = test: IEDB peptide-MHC binding, purified MHC/direct/fluorescence; filed as Kd, often an IC50 or EC50 that approximates it; ≥ and ≤ were set here for values at or beyond the usual limits of such assays; settings: source organism: Salmonella enterica subsp. enterica serovar Typhimurium
HLA-A*02:01 [6] = test: IEDB peptide-MHC binding, purified MHC/competitive/fluorescence; filed as Kd, often an IC50 or EC50 that approximates it; ≥ and ≤ were set here for values at or beyond the usual limits of such assays; settings: source organism: Escherichia coli 536
HLA-B*15:01 [7] = test: as above
HLA-B*51:01 [8] = test: IEDB peptide-MHC binding, purified MHC/competitive/radioactivity; filed as Kd, often an IC50 or EC50 that approximates it; ≥ and ≤ were set here for values at or beyond the usual limits of such assays; settings: source organism: Dengue virus 1 Brazil/97-11/1997
[9] = source organism: Mammarenavirus guanaritoense
[10] = source organism: Salmonella enterica subsp. enterica serovar Typhimurium
[11] = source organism: Dengue virus 4 Philippines/H241/1956
[12] = source organism: SARS coronavirus Tor2
[13] = source organism: Dengue virus 1 Brazil/97-11/1997
[14] = source organism: Vaccinia virus WR
[15] = source organism: Dengue virus 2 Jamaica/1409/1983
[16] = source organism: Hyphomonas neptunium
[17] = source organism: Escherichia coli 536
[18] = source organism: Lymphocytic choriomeningitis virus (strain Armstrong)
[19] = source organism: Mammarenavirus machupoense

Sequence: RRGLSQFTQ
- Kd (HLA-B*27:05): ≥ 20 µM

Sequence: QQICSNFKI
- Kd (HLA-A*23:01; [9]): 0.0988 µM
- Kd (HLA-A*24:02; [9]): 13.1 µM
- Kd (HLA-A*29:02; [9]): 3770 nM

Sequence: LGYPFAWFL
- Kd (HLA-A*02:01 [1]; [10]): 831 nM
- Kd (HLA-A*69:01; [10]): 0.307 µM
- Kd (HLA-B*58:01): 102 nM

Sequence: QEEHKETWHY
- Kd (HLA-B*44:02; [11]): 685 nM
- Kd (HLA-B*44:03; [11]): 422 nM

Sequence: DTSNPKTPKY
- Kd (HLA-A*01:01; [12]): 194 nM
- Kd (HLA-A*23:01; [12]): ≥ 70 µM
- Kd (HLA-A*24:02; [12]): ≥ 70.3 µM
- Kd (HLA-A*26:01; [12]): 1260 nM
- Kd (HLA-A*29:02; [12]): 367 nM
- Kd (HLA-A*30:02; [12]): 48.9 nM

Sequence: FTSCELYHY
- Kd (HLA-A*01:01; [12]): 1.73 nM
- Kd (HLA-A*23:01; [12]): ≥ 38.1 µM
- Kd (HLA-A*24:02; [12]): ≥ 35.8 µM
- Kd (HLA-A*26:01; [12]): 811 nM
- Kd (HLA-A*29:02; [12]): 3.57 nM
- Kd (HLA-A*30:02; [12]): 365 nM

Sequence: FYAYLRKHF
- Kd (HLA-A*01:01; [12]): ≥ 78100 nM
- Kd (HLA-A*23:01; [12]): ≥ 23.9 µM
- Kd (HLA-A*24:02; [12]): ≥ 31.8 µM
- Kd (HLA-A*26:01; [12]): ≥ 77900 nM
- Kd (HLA-A*29:02; [12]): ≥ 46000 nM
- Kd (HLA-A*30:02; [12]): ≥ 125000 nM

Sequence: AMQKESDDY
- Kd (HLA-A*01:01; [12]): 2740 nM
- Kd (HLA-A*23:01; [12]): ≥ 77.8 µM
- Kd (HLA-A*24:02; [12]): ≥ 77.6 µM
- Kd (HLA-A*26:01; [12]): ≥ 65300 nM
- Kd (HLA-A*29:02; [12]): 15500 nM
- Kd (HLA-A*30:02; [12]): 126 nM

Sequence: SAVPVDWVPT
- Kd (HLA-A*32:01; [13]): 18600 nM

Sequence: NEMGLLETTK
- Kd (HLA-B*44:02; [13]): 1690 nM
- Kd (HLA-B*44:03; [13]): ≥ 20700 nM

Sequence: ITLVYKVYY
- Kd (HLA-A*01:01; [12]): 44.9 nM
- Kd (HLA-A*23:01; [12]): ≥ 57.7 µM
- Kd (HLA-A*24:02; [12]): ≥ 77.6 µM
- Kd (HLA-A*26:01; [12]): 1640 nM
- Kd (HLA-A*29:02; [12]): 1.64 nM
- Kd (HLA-A*30:02; [12]): 5.19 nM

Sequence: TPKFTRMVV
- Kd (HLA-B*07:02 [2]): 104 nM
- Kd (HLA-B*51:01 [3]; source organism: Mycobacterium tuberculosis C): ≥ 20 µM

Sequence: SLSAVSVHI
- Kd (HLA-A*32:01; [14]): 33.9 nM

Sequence: TPMLRHSIEN
- Kd (HLA-B*07:02 [4]; [15]): 507 nM

Sequence: GLIEEMASA
- Kd (HLA-A*02:01 [1]; [10]): 20 nM
- Kd (HLA-A*69:01; [10]): ≥ 20.9 µM
- Kd (HLA-B*15:01 [5]): 4.5 µM

Sequence: ELSPRWYFY
- Kd (HLA-A*01:01; [12]): ≥ 35000 nM
- Kd (HLA-A*23:01; [12]): 10.6 µM
- Kd (HLA-A*24:02; [12]): 13.2 µM
- Kd (HLA-A*26:01; [12]): 15.7 nM
- Kd (HLA-A*29:02; [12]): 70.3 nM
- Kd (HLA-A*30:02; [12]): 790 nM

Sequence: ALTPPFHPY
- Kd (HLA-A*02:01 [1]; [16]): 9000 nM
- Kd (HLA-A*69:01; [16]): ≥ 20 µM

Sequence: NPTTLTASL
- Kd (HLA-B*07:02 [4]; source organism: Dengue virus 4 Dominica/814669/1981): 57.3 nM

Sequence: FSSQALVLI
- Kd (HLA-A*02:01 [6]): 692 nM
- Kd (HLA-B*15:01 [7]; [17]): ≥ 20000 nM
- Kd (HLA-B*51:01 [3]; [17]): ≥ 20 µM

Sequence: GVFPVSIPI
- Kd (HLA-A*32:01; [15]): 44.5 nM

Sequence: FSQEEAKLF
- Kd (HLA-B*15:01 [7]; source organism: Yersinia pestis Antiqua): 2480 nM

Sequence: ICISLSNSF
- Kd (HLA-A*01:01; [18]): ≥ 21400 nM
- Kd (HLA-A*23:01; [18]): ≥ 77.7 µM
- Kd (HLA-A*24:02; [18]): ≥ 77.5 µM
- Kd (HLA-A*26:01; [18]): ≥ 77900 nM
- Kd (HLA-A*29:02; [18]): ≥ 78900 nM
- Kd (HLA-A*30:02; [18]): ≥ 76900 nM

Sequence: KLFNIAQRI
- Kd (HLA-A*32:01; [14]): 1.58 nM

Sequence: LYIIKLVFLW
- Kd (HLA-A*01:01; [12]): 13600 nM
- Kd (HLA-A*23:01; [12]): 0.000165 µM
- Kd (HLA-A*24:02; [12]): 0.0209 µM
- Kd (HLA-A*26:01; [12]): 1170 nM
- Kd (HLA-A*29:02; [12]): ≥ 31800 nM
- Kd (HLA-A*30:02; [12]): ≥ 85700 nM

Sequence: TPQDNQLAYV
- Kd (HLA-B*07:02 [4]; [13]): 330 nM
- Kd (HLA-B*51:01 [8]): 14.6 µM

Sequence: NEPEDIDCW
- Kd (HLA-B*44:02; [15]): 1080 nM
- Kd (HLA-B*44:03; [15]): 870 nM

Sequence: EENVEVEIW
- Kd (HLA-B*44:02; [15]): 45.1 nM
- Kd (HLA-B*44:03; [15]): 39.1 nM

Sequence: LCMLNNSLYY
- Kd (HLA-A*01:01; [19]): 367 nM
- Kd (HLA-A*23:01; [19]): ≥ 40.4 µM
- Kd (HLA-A*24:02; [19]): ≥ 55.2 µM
- Kd (HLA-A*26:01; [19]): ≥ 69700 nM
- Kd (HLA-A*29:02; [19]): 7.19 nM
- Kd (HLA-A*30:02; [19]): 181 nM
